Earlier results as cited in publication PMC11806408.

Biological target: BMP-10 GF growth factor (Homo sapiens) (UniProt O95393)
Sequence (O95393 317-424): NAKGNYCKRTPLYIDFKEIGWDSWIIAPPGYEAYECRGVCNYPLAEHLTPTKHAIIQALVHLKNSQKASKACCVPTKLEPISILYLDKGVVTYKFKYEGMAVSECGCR

BMP-10 PD prodomain, sequence (O95393 22-316): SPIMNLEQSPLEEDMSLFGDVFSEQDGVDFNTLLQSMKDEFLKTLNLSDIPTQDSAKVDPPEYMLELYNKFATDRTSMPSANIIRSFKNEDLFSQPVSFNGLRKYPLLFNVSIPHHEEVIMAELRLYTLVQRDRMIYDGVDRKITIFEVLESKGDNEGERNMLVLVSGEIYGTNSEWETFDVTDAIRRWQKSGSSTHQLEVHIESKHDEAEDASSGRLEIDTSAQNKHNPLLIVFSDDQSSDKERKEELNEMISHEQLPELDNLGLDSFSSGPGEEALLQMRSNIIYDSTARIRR

For “BMP-10 PD prodomain (from UniProt O95393)”, the Kd is given as 7 nM.
